The source of these data is US20240067747A1 (SHANGHAI HUAOTA BIOPHARMACEUTICAL, published 2024).

Where two headings read alike, the source gives them in different places.

For assay [1], the target named is T1, human CD73 on the cell surface of CHOK1-huCD73-3F4 cells (Huabo Biopharm) (human, UniProt P21589 27-549).
T1 construct: whole, on cells; also called cells expressing human CD73; CD73 on cell membrane
T1 sequence (looked up): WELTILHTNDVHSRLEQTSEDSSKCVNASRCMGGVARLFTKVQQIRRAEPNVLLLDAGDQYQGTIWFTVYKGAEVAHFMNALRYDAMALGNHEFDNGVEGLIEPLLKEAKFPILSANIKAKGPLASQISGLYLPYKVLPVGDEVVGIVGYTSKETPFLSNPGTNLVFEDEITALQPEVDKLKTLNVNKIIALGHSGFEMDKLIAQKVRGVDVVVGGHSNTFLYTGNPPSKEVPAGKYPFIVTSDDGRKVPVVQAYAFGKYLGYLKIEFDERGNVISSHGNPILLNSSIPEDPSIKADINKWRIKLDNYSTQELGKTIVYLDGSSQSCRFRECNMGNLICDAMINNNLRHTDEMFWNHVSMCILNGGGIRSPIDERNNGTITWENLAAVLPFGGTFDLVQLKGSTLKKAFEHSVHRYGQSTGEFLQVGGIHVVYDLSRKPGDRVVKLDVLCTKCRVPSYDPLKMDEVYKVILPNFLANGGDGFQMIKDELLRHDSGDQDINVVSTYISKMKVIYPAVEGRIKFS
Put plainly: flow cytometry on CHOK1-huCD73-3F4 cells, PE-goat anti-human-Fc. On the procedure: All antigen-binding proteins were diluted to 30 μg/ml with 1% BSA in PBS solution (1% BSA/PBS) and then 3-fold diluted for 11 gradients. The diluted antigen-binding proteins were added to a 96-well U-shaped plate at 20 μL per well; and a negative control (with 1% BSA/PBS added only) was set up at the same time. The suspension of cells (CHOK1-huCD73-3F4, Huabo Biopharm) expressing human CD73 during the logarithmic growth phase were centrifuged (1000 rpm×5 min) to discard the culture medium; and the cells were resuspended with 1% BSA/PBS until the density of viable cells was 1×10⁶/mL, and were added, at 20 μL (2×10⁴ cells) per well, to the 96-well U-shaped plate with the […] antigen-binding protein to react for 30 min at room temperature. After reaction, the 96-well U-shaped plate was resuspended with 1% BSA/PBS, centrifuged (300 g×3 min) to discard the supernatant, and washed once in such a way. PE-goat anti-human-Fc (Jackson ImmunoResearch, #109-115098) diluted at 1:200 was added to react for 15 min in the dark at room temperature. After reaction, the 96-well U-shaped plate was resuspended with 1% BSA/PBS, centrifuged (300 g×3 min) to discard the supernatant, washed three times in such a way, and finally resuspended with 100 μL of 1% BSA/PBS for each wall; and the fluorescence intensity of a PE channel was detected with a flow cytometer (BD, #Cantoll).

Assay [2] deals with T1, human CD73 on the cell surface of …. Kind of assay: cell-based or functional assay.
Assay [3] has as its target T2, Human CD73 (as used in the hybridoma screening of Table 1) (human, UniProt P21589 27-549, limits assumed).
T2 sequence (looked up): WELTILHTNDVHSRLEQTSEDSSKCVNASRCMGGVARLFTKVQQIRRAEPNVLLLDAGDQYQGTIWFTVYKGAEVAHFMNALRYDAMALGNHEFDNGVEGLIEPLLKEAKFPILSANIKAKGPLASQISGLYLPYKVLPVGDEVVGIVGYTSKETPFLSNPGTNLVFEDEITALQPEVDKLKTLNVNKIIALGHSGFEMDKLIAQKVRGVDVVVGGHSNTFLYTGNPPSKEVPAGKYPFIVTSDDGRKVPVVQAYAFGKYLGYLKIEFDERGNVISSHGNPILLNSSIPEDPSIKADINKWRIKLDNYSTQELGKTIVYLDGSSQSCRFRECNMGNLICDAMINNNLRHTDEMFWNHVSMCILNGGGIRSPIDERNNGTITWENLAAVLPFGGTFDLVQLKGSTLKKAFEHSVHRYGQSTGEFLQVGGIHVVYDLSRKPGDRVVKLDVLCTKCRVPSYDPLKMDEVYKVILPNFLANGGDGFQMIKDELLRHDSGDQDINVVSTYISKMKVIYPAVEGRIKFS
Put plainly: Biacore affinity screen of hybridoma clones. (In general: SPR reads the build-up and loss of mass on a sensor chip optically.)

Assay [4] addresses T1, human CD73 on the cell surface of …. Kind of assay: cell-based or functional assay. This is another data set of the same source.

B1: 900584 (screened antigen-binding protein targeting CD73) (antibody, V domains shown)
VH: QVQVQQPGTELVKPGASVKLSCKASGYTFTGYWMHWVKQRPGQGLEWIGMIHPNSGSTYYNEKFKSKATLTVDRSSSTAYMQLSSLSSEDSAVYYCARYYGTTYEWYFDVWGTGTTVTVSS
VL: DIQMTQTTSSLSASLGDRVTISCRASQDISNYLNWYQQKPDGTVKPLIYYTSSLHSGVPSRFSGSGSGTDYSLTISDLEHEDIATYFCQQGYTLPFTFGGGTKLEIK
notes: It was detected with PE-goat anti-human-Fc
A word on the EC50: it is the concentration that produces a half-maximal response. Low values mean a more potent agent, high ones a less potent agent. With B1, in assay [1], the midpoint of the response, the EC50, lay at 2.9 µg/mL. Also, the “EC50 of inhibition of the enzyme activity of CD73 on cell membrane (AMP/ATP, CellTiter-Glo)” value in assay [2] came to 11.1 µg/mL.

B2: 124A9 murine monoclonal antigen-binding protein (hybridoma clone 124A9) (antibody, V domains shown)
VH: QVQLQQPGAELVKPGASVKLSCKASGYTFTSYWIHWVKQRPGQGLDWIGMIHPNSGSTYYNEKFKSKATLTVDKSSSTAYMQLSSLTSEDSAVYYCARYYGSDYEWYFDVWGTGTTVTVSS
VL: DIVMTQSQKFMSTSVGDRVSITCKASQNVRTAVVWYQQNPGQSPKALIYLASNRHTGVPDRFTGSGSGTDFTLTISNVHSEDLADYFCLQHWNYPYTFGGGTKLEIK
A word on the Kd: it is the equilibrium constant for the complex coming apart. A high value points to lower affinity. On to B2, for which binding in assay [3] was put at a Kd of 2.16 nM.

B3: 900759 (Oleclumab antibody sourced from MedImmune, MEDI 9447) (antibody, human IgG1, lambda, L234A L235A, V domains shown)
VH: EVQLLESGGGLVQPGGSLRLSCAASGFTFSSYAYSWVRQAPGKGLEWVSAISGSGGRTYYADSVKGRFTISRDNSKNTLYLQMNSLRAEDTAVYYCARLGYGRVDEWGRGTLVTVSS
VL: QSVLTQPPSASGTPGQRVTISCSGSLSNIGRNPVNWYQQLPGTAPKLLIYLDNLRLSGVPDRFSGSKSGTSASLAISGLQSEDEADYYCATWDDSHPGWTFGGGTKLTVLG
With B3, the “EC50 of inhibition of the enzyme activity of CD73 on cell membrane (AMP/ATP, CellTiter-Glo)” value in assay [4] was 0.0417 µg/mL.
